Results taken from patent US10927178B2, “Anti-CXCR4 antibodies and antibody-drug conjugates” (PFIZER INC., priority 2013, dated 2021).
Positions count from the first letter of the chain named. Names and notes keep the numbering of the source.

B1: h3G10.1.91.A58B: humanized anti-CXCR4 antibody; VH h3G10.1.91 SEQ ID NO:33, VL h3G10.A58B SEQ ID NO:73 (antibody, V domains shown)
VH: EVQLVESGGGLVQPGGSLRLSCAASGFTFSDYYMSWVRQAPGKGLEWVGFIRHKANFETTEYSTSVKGRFTISRDDSKNSLYLQMNSLKTEDTAVYYCARDLPGFAYWGQGTLVTVSS
VL: DIVMTQSPDSLAVSLGERATINCKSSQSLFNSHTRKNYLAWYQQKPGQPPKLLIYWASARGSGVPDRFSGSGSGTDFTLTISSLQAEDVAVYYCKQSFNLRTFGGGTKVEIK
B2: h3G10.B44 VH/h3G10.B12 VL: Fab; VH SEQ ID NO:25, VL B12 (probably B12A, SEQ ID NO:61) (antibody, V domains shown)
VH: B1 VH with G49S, E58Y, D76N, S80T, K89R, T90A, R100K
VL: B1 VL with H33R, A40L, G61E, N99R
B3: h3G10.B44 VH/h3G10.A11 VL: Fab; VH SEQ ID NO:25, VL A11 (probably A11A, SEQ ID NO:51) (antibody, V domains shown)
VH: B1 VH with G49S, E58Y, D76N, S80T, K89R, T90A, R100K
VL: B1 VL with S26A, H33R, G61E, N99R
modifications: Fab

What was measured:
OPM-2-Luc MM cells = test: Systemic OPM-2-Luc multiple myeloma model; type: in vivo, mouse
Experimental: Humanized anti-CXCR4 antibody h3G10.1.91.A58B was tested for its ability to increase survival and reduce tumor burden of NSG mice using a disseminated/systemic intravenous model of MM. The human MM cancer line OPM-2 was transduced with the luciferase gene (OPM-2-LUC) to allow for “in life” monitoring of tumor burden over time. Cells were cultured at 37° C. in a 5% CO2 incubator in RPMI 1640 media containing 10% fetal bovine serum with 0.5 μg/mL puromycin for luciferase expression selection. 4-6 week old NSG female mice were injected intravenously with OPM-2-Luc cells (5×10^6/animal).
On Day 8 post-cell implantation mice were randomized into three treatment groups (10 animals per group) based on total body bioluminescence intensity. Weekly subcutaneous (s.c.) antibody treatment at 10 mg/kg in a solution of sterile PBS was initiated and carried out for 5 weeks. Melphalan, one of the approved drugs for treatment of multiple myeloma patients, was dosed at 1 mg/kg, twice/week carried out for 3 weeks. Tumor burden was assessed using Xenogen IVIS 200 imaging system. Mice were imaged every 7 days in a ventral position and whole body bioluminescence was determined using Xenogen Living Image software. When mice began to show hind limb paralysis or reached other humane endpoints they were euthanized. Both tumor burden (by bioluminescence) and survival were evaluated as endpoints.

JVM-13-Luc cells = test: Systemic JVM-13-Luc CLL model; type: in vivo, mouse; details: 10 mg/kg s.c. once a week
Experimental: Anti-tumor activity of CXCR4 antibody was further investigated in a disseminated intravenous Chronic Lymphocytic Leukemia (CLL) model. The human JVM-13 tumor cell line stably transfected to express the luciferase gene was cultured at 37° C. in a 5% CO2 incubator in RPMI 1640 media containing 10% fetal bovine serum and […] Puromycin. The model was established by injecting 1×10^6 JVM-13-Luc cells into female 6-8 week old SCID Beige mice via tail vein. 21 days post-cell implantation mice were assigned into treatment groups (10 animals per group) based on bioluminescence (BLI) reading. […] Rituximab, an anti-CD20 Ab, approved for treatment of CLL patients, was used as positive control. Rituximab was dosed at 10 mg/kg in a solution of sterile PBS once a week, s.c. Tumor burden was assessed using Xenogen IVIS 200 imaging system. Mice were imaged every 7 days in a ventral position and whole body bioluminescence was determined using Xenogen Living Image software. When mice began to show hind limb paralysis or reached other humane endpoints they were euthanized. Both tumor burden (by bioluminescence) and survival were evaluated as endpoints.

Ramos cells = test: Cell-death induction in Ramos cells (Annexin V/PI); type: cell-based, human; details: positive control, 24 hrs, untreated cells approximately 30%
Experimental: Anti-CXCR4 antibodies were examined for the ability to induce cell-death in the human Non-Hodgkin's Lymphoma Ramos cell line. Cells were cultured to sub-confluency in RPMI 1640 media containing 10% fetal bovine serum and […] Glutamine at 37° C. in a CO2 incubator. Cells were seeded in growth media in a 48-well plates at 2.5×10^6 cells/mL. Anti-CXCR4 antibodies, diluted in PBS to concentrations indicated, were added to the cells and incubated for 24 hrs at 37° C. Cell-death was measured by Annexin V-PE and propidium iodide (PI) fluorescent signal measured in a LSRII Flow Cytometer (BD Biosciences). Total cell-death was determined by adding the Annexin V+/PI+(late) population with the Annexin V+/PI-(early) population.
The Fab is a single chain antibody (monovalent) and contains the immunoglobulin variable regions which are part of the antigen-binding site and the first immunoglogulin constant region. This fragment was obtained by digestion of the 3G10 antibody with the proteolytic enzyme papain. The F(ab′)2 was generated by pepsin digestion to remove most of the Fc region while leaving intact some of the hinge region. F(ab′)2 fragments have two antigen-binding Fab portions linked together by disulfide bonds, and therefore are bivalent.

[1] = target: T1, CXCR4 (CXCR4-expressing HPB-ALL cells) (Homo sapiens, UniProt P61073); test: Flow cytometry binding of humanized 3G10 Fabs to HPB-ALL cells (Example 2); details: for MFI 0.25 μg/ml: Fab 0.25 μg/ml; for MFI 2.5 μg/ml: Fab 2.5 μg/ml
T1 construct: endogenous in cells; host or cells: HPB-ALL (human T cell leukemia)
T1 sequence (P61073 whole entry): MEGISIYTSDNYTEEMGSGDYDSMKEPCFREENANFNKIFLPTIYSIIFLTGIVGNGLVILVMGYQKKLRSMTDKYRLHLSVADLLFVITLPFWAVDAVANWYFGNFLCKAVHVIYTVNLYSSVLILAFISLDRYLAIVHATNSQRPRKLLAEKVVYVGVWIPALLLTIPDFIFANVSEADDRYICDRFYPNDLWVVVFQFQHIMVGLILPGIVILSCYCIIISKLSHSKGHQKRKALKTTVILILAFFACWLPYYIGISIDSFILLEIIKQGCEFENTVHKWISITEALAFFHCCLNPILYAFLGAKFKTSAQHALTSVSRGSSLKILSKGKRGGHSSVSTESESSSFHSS
Experimental: 150,000 cells were incubated with various h3G10 Fabs at either 2.5 or 0.25 μg/mL in 100 uL binding buffer (PBS+0.5% BSA), followed by incubation with APC-conjugated goat anti-human Fab-specific secondary antibody from R&D systems.

[2] = NSG mice, OPM-2-Luc i.v., antibody 10 mg/kg s.c. weekly for 5 weeks, Melphalan 1 mg/kg twice/week for 3 weeks
[3] = antibody 10 mg/kg s.c. weekly 5 weeks, Melphalan 1 mg/kg twice/week 3 weeks, isotype control 33.5 days

| Molecule | median survival (OPM-2-Luc MM cells; [2]) | median survival (OPM-2-Luc MM cells; [3]) | MFI 0.25 μg/ml [1] | MFI 2.5 μg/ml [1] | also measured |
| --- | --- | --- | --- | --- | --- |
| N[C@@H](Cc1ccc(N(CCCl)CCCl)cc1)C(=O)O [Melphalan, reference compound] | 36 days | 36 days |  |  |  |
| Rituximab: anti-CD20 Ab, approved for treatment of CLL patients, used as positive control [reference compound] |  |  |  |  | tumor burden (luminescence) compared to isotype control antibody (JVM-13-Luc cells; from 21 days post-implantation): significantly reduced tumor burden; median survival (JVM-13-Luc cells; isotype control 32.5 days): 45 days; survival compared to isotype control Ab (JVM-13-Luc cells; p<0.0001): Significant increase in survival |
| CN[C@@H]1C[C@H]2O[C@@](C)([C@@H]1OC)n1c3ccccc3c3c4c(c5c6ccccc6n2c5c31)C(=O)NC4 [Staurosporin, reference compound] |  |  |  |  | cell-death (Ramos cells): approximately 60% |
| B1 | Undefined | undefined |  |  | tumor growth (bioluminescence) compared to isotype control antibody (OPM-2-Luc MM cells; 10 mg/kg s.c. weekly for 5 weeks, p<0.0001 on Day 30): significantly inhibited tumor growth |
| B2 |  |  | 2094 | 8127 |  |
| B3 |  |  | 3792 | 8306 |  |
